In PMC10019796:

Target: mtDsbC-SARS-CoV-2 RBD Alpha variant (B.1.1.7) fusion protein (SARS-CoV-2) (UniProt P0DTC2)
Experiment: BLI; biotinylated mtDsbC-RBD (20 µg/mL) immobilised on streptavidin (SA) biosensors, Fabs as analytes at three nanomolar concentrations; Octet RED384, 30 °C, 1000 rpm, 1 × PBS Kinetics Buffer; 1:1 interaction model, global fit

## REGN10987 (L93Q) Fab
  Kd: > 1000 nM
